Ka and Kd data for one molecule are collected here from paper PMC6389284, “Heterodimerization of UNC-13/RIM regulates synaptic vesicle release probability but not priming in C. elegans” (eLife, 2019).

Test [1] deals with T1, C. elegans UNC-13 long isoform residues 1-258 bearing the K49E mutation (C. elegans, UniProt P27715 1-258, K49E).
T1 sequence: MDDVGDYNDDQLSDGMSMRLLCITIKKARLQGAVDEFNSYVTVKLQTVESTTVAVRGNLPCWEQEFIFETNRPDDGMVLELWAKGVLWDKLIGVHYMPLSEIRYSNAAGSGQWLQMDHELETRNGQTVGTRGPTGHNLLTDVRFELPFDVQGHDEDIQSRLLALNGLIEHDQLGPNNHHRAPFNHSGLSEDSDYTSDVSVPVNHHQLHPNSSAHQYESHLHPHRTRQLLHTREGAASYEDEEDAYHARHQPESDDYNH
As to the kind of experiment: ITC. On the technique in general: ITC needs no label: the signal is the heat of the interaction.

Test [2] concerns the target T2, C. elegans UNC-13 long isoform residues 1-258 bearing the K49E mutation (C. elegans, UniProt P27715 1-258, K49E).
T2 construct: UNC-13 long isoform, C. elegans, residues 1-258 with K49E; expressed from pGEX6p1; Residues left by HRV3C cleavage of the pGEX6p1 fusion are not described; also called UNC-13L residues 1-258; UNC-13L C2A domain; source: E. coli Rosetta2 (DE3), purified (glutathione sepharose, HRV3C cleavage on beads, Superdex 75)
T2 sequence (looked up): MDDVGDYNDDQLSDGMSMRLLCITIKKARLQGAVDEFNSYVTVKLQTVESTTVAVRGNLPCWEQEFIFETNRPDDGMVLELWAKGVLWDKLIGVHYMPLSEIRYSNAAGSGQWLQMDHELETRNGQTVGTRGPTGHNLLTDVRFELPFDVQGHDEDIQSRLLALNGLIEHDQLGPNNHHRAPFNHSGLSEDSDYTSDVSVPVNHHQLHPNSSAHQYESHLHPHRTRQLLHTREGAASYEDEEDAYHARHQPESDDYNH
Nature of the test: ITC; Nano ITC (TA Instruments), 20 mM HEPES pH 7.5, 150 mM NaCl, 25°C; one site independent binding model; UNC-13L 1-258 K49E at 21 µM, UNC-10 62-121 WT at 140 µM or K77/79E at 116 µM. Conditions: both partners purified.

For orientation: Kd means the free concentration of one partner at which half of the binding sites on the other are occupied at equilibrium, for simple one-to-one binding. A higher Kd goes with lower affinity.

B1: C. elegans UNC-10 residues 62-121 WT (domain or fragment, UniProt Q22366 62-121, looked up)
chain: KLVGTQDDAICQICQKTKFADGIGHKCFYCQLRSCARCGGRAQSKNKAIWACSLCQKRQQ
notes: expressed from pGEX6p1; also called UNC-10/RIM ZF domain; source: E. coli Rosetta2 (DE3), grown with ZnSO4, purified (glutathione sepharose, HRV3C cleavage on beads, Superdex 75)
B1 had a Ka in test [1] of 789000 M⁻¹. Further, the Kd in test [2] was determined as 1290 nM.
